Biological target: Full-length human KLHL41 GST fusion protein (human) (UniProt O60662)
Assay: AlphaScreen or HTRF

Sequence of UniProt O60662 (O60662 whole entry, the tested form may be a part): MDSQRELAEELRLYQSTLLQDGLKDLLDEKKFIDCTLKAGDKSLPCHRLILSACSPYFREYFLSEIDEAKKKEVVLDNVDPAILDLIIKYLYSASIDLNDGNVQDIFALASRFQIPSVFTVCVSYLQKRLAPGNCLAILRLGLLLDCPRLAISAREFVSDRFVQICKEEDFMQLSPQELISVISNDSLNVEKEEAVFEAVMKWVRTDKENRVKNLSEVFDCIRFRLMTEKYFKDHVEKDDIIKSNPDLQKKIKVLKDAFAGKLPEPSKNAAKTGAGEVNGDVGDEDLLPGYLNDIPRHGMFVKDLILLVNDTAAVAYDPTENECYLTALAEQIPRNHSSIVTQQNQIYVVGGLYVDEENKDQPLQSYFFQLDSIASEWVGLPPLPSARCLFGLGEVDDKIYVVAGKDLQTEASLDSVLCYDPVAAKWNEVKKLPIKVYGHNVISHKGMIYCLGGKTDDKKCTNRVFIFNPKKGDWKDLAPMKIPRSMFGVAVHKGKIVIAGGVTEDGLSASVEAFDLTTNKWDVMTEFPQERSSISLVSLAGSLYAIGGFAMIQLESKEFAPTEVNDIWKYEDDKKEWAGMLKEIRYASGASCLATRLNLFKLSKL

delta F% (HTRF, 10nM KLHL41 and 100nM NEB): 950%
Substance: Human NEB (aa 5647-5849) MBP-HA fusion protein (from UniProt P20929 5647-5849) (domain or fragment)

— article doi:10.1101/487454
